3 molecules from paper PMC5841405 (2018) can be followed below.

First the molecules themselves.
B1: Hook3_(1–160)A138D (domain or fragment)
chain: MFSVESLERAELCESLLTWIQTFNVDAPCQTVEDLTNGVVMAQVLQKIDPAYFDENWLNRIKTEVGDNWRLKISNLKKILKGILDYNHEILGQQINDFTLPDVNLIGEHSDAAELGRMLQLILGCAVNCEQKQEYIQDIMMMEESVQHVVMTAIQELMSK
B2: Hook3_(1–160) (domain or fragment)
chain: B1 chain with D138A

The target in test [1] is MBP-LIC1FL (human). In words: ITC.
Test [2] deals with MBP-LIC1FL (human). The experiment in a line: ITC. The source holds these as a separate data set.
For test [3], the target named is T1, Spindly_(1–142) (human, UniProt Q96EA4-1 1-142).
T1 chain: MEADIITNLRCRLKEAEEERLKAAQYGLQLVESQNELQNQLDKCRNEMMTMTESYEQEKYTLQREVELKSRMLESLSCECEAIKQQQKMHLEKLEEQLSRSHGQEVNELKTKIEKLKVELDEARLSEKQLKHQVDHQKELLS
The experiment in a line: ITC; first site (KD1).

Test [4] concerns the target T2, BICD2_(1–98) (human, UniProt Q8TD16-1 1-98).
T2 chain: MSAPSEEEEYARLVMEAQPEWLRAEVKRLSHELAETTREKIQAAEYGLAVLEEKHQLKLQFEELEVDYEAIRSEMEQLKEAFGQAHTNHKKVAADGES
The experiment in a line: ITC; first site (KD1), 30°C.

Test [5] deals with T2, BICD2_(1–98). The experiment in a line: ITC; second site (KD2), 30°C.
For test [6], the target named is B2. The experiment in a line: ITC.
The target of test [7] is T1, Spindly_(1–142). In words: ITC; second site (KD2).

Where a chain is given by its changes, count along the chain named. In names and notes the source's numbering stands. Read-outs that look alike come from different tables or passages of the source.

Chain of MBP-LIC1FL (human) (chain, as listed by the source): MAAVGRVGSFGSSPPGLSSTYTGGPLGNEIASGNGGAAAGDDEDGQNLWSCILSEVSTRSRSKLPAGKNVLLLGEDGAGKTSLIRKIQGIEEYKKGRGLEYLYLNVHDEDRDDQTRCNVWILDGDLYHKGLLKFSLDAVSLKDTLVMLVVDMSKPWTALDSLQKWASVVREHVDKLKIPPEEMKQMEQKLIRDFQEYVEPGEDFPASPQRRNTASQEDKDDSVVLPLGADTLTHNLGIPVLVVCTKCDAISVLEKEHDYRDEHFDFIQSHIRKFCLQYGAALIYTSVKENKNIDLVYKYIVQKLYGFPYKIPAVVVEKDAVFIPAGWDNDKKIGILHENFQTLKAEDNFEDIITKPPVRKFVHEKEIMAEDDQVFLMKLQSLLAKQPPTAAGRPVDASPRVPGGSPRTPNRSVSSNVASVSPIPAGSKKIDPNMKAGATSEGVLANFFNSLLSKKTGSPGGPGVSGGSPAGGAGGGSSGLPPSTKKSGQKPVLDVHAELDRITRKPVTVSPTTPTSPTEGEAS

Consider B1, for which the Kd in test [1] is 8.1 µM.

As for B2, in test [2], binding was characterised by a dissociation constant (Kd) of 12.3 µM.

For NMKAGATSEGVLANFFNSLLSKKTGS [LIC1_(433–458)], the Kd in test [3] came out at 3.6 µM; in test [4] it was 1500 nM; in test [5], 7.5 µM; in test [6], 6.3 µM; in test [7], 7.6 µM.
